From US6339069

B1: proteinase K (protein)
chain: AAQTNAPWGLARISSTSPGTSTYYYDESAGQGSCVYVIDTGIEASHPEFEGRAQMVKTYYYSSRDGNGHGTHCAGTVGSRTYGVAKKTQLFGVKVLDDNGSGQYSTIIAGMDFVASDKNNRNCPKGVVASLSLGGGYSSSVNSAAARLQSSGVMVAVAAGNNNADARNYSPASEPSVCTVGASDRYDRRSSFSNYGSVLDIFGPGTSILSTWIGGSTRSISGTSMATPHVAGLAAYLMTLGKTTAASACRYIADTANKGDLSNIPFGTVNLLAYNNYQA
B2: Human leukocyte elastase (protein)
chain: IVGGRRARPHAWPFMVSLQLRGGHFCGATLIAPNFVMSAAHCVANVNVRAVRVVLGAHNLSRREPTRQVFAVQRIFENGYDPVNLLNDIVILQLNGSATINANVQVAQLPAQGRRLGNGVQCLAMGWGLLGRNRGIASVLQELNVTVVTSLCRRSNVCTLVRGRQAGVCFGDSGSPLVCNGLIHGIASFVRGGCASGLYPDAFAPVAQFVNWIDSIIQ

Key:
[1] = target: T1, N-acetyl-alanyl-alanyl-dioleoyl phosphatidylethanolamine
T1 chain: AA

[2] = target: T2, MeO-suc-ala-ala-pro-val-DOPE (1,2-Dioleoyl-sn-glycero-3-phosphoethanolamido-val-pro-ala-ala-sucMeO)
T2 chain: AAPV

Row | Protein | cleavage of N-Ac-AA-DOPE to DOPE, TLC [1] | cleavage of N-Ac-AA-DOPE, HPLC [1] | cleavage of N-Ac-ala-ala-DOPE, HPLC [1] | conversion of N-acetyl-ala-ala-DOPE to DOPE, 31P NMR integration [1] | cleavage of MeO-suc-ala-ala-pro-val-DOPE, TLC, HLE dose titration [2] | conversion of MeO-suc-AAPV-DOPE to DOPE, 31P-NMR [2] | conversion of exposed (outer leaflet) MeO-suc-AAPV-DOPE to DOPE, 31P-NMR, assuming unilamellar vesicles [2] | kinetics of cleavage of MeO-suc-ala-ala-pro-val-DOPE, TLC [2]
1 | B1 | Upon incubation of N-Ac-AA-DOPE liposomes with proteinase K the peptide-lipid was cleaved and DOPE was generated | Both elastase and proteinase K cleaved N-Ac-AA-DOPE to a similar extent | both proteinase K, with a known cleavage site, and the nonspecific mixture of proteases found in pronase, effected cleavage of N-Ac-ala-ala-DOPE from the liposomes | approximately 20% of the N-acetyl-ala-ala-DOPE was converted to pure DOPE in sample B |  |  |  | 
2 | B2 | Treatment of N-Ac-AA-DOPE liposomes with elastase generated a product corresponding to DOPE | Both elastase and proteinase K cleaved N-Ac-AA-DOPE to a similar extent |  |  | between 5-40 micrograms of HLE were effective in cleaving the AAPV-PE | Treatment with 5 micrograms of elastase/100 nmol lipid yielded 20% DOPE | the minimal percentage conversion of exposed MeO-suc-AAPV-DOPE (SEQ ID NO:42) to DOPE in the outer leaflet lipid of this preparation was 40% | The peptide was cleaved by HLE in as little as 1 hour at 37 degrees C.
